B1: VapC toxin from Leptospira interrogans serovar Copenhageni (LIC12660), 6xHis-tagged, refolded by hig (enzyme)
chain: MYLLDTNICIFLIKKKNATLLENLKKKLNKDLFVSSLTVAELEFGIQKSEFKEKNKVALIEFLTIFNILSFSDKDAESYGIIRADLERKGNVIGSIDMLLAAQAIANNYIFVTNNTKEFKRIKALKIENWTQ
notes: also called pressurized VapC
B2: VapC toxin from Leptospira interrogans serovar Copenhageni (LIC12660), non-tagged, co-expressed with VapB (enzyme)
chain: B1 chain
notes: Translated from the bicistronic mRNA under a single promoter; also called non-tagged VapC

Biological target: the molecule itself
Assay: non-reducing SDS-PAGE

Protein | stoichiometry N
B1 | 2
B2 | 2
